For one substance, Luciferase activity (GAL4 reporter; cleavage of the BDAD-teneurin-2 fusion) results are on record in patent publication US20060121483A1, “Methods for detecting teneurin signalling and related screening methods” (priority 2002, published 2006).

The assay addresses TEY (teneurin-2 construct: Transmembrane, EGF-like and YD-repeats; entire long form of the extracellular domain, without cytoplasmic domain) (chicken) (UniProt Q9DER5). In words: cell-based or functional assay.

On to “BDAD-CTEY (GAL4 binding domain and NFkB activation domain fused to full length teneurin-2) (from UniProt P04386 1-147; Q9DER5 1-2802)”, for which the Luciferase activity (GAL4 reporter; cleavage of the BDAD-teneurin-2 fusion) is 6 fold.
